What was measured:
[1] = target: axolotl Melanocortin-3 receptor, N-terminally 3×HA tagged (Ambystoma mexicanum (Mexican axolotl))
[2] = target: axolotl Melanocortin-4 receptor, N-terminally 3×HA tagged (Ambystoma mexicanum (Mexican axolotl))

Substance	cAMP luminescent assay (pCRE-Luc, Dual-Glo) in HEK293T, logEC50; MC3R:MRAP2 plasmid ratio 1:0 [1] [log M]	cAMP luminescent assay (pCRE-Luc, Dual-Glo) in HEK293T, logEC50; MC3R:MRAP2 plasmid ratio 1:1 [1] [log M]	cAMP luminescent assay (pCRE-Luc, Dual-Glo) in HEK293T, logEC50; MC3R:MRAP2 plasmid ratio 1:3 [1] [log M]	cAMP luminescent assay (pCRE-Luc, Dual-Glo) in HEK293T, logEC50; MC3R:MRAP2 plasmid ratio 1:6 [1] [log M]	cAMP luminescent assay (pCRE-Luc, Dual-Glo) in HEK293T, logEC50; MC4R:MRAP2 plasmid ratio 1:0 [2] [log M]	cAMP luminescent assay (pCRE-Luc, Dual-Glo) in HEK293T, logEC50; MC4R:MRAP2 plasmid ratio 1:1 [2] [log M]	cAMP luminescent assay (pCRE-Luc, Dual-Glo) in HEK293T, logEC50; MC4R:MRAP2 plasmid ratio 1:3 [2] [log M]	cAMP luminescent assay (pCRE-Luc, Dual-Glo) in HEK293T, logEC50; MC4R:MRAP2 plasmid ratio 1:6 [2] [log M]
human adrenocorticotropin ACTH (1–24) (peptide)	-9.51	-9.47	-9.4	-9.55	-9.62	-10.1	-10.1	-10.3
Human α-melanocyte stimulating hormone (peptide)	-9.95	-9.29	-9.04	-8.98	-9.84	-10	-9.37	-9.06

Source: PMC8891371
